Earlier results on one substance are cited in paper PMC5705969.

The target in data set [1] is Kv1.1 (UniProt Q09470).
For data set [2], the target named is Kv1.2 (UniProt P16389).
Data set [3] has as its target Kv1.3 (UniProt P22001).
Chain of UniProt P22001 (P22001 whole entry): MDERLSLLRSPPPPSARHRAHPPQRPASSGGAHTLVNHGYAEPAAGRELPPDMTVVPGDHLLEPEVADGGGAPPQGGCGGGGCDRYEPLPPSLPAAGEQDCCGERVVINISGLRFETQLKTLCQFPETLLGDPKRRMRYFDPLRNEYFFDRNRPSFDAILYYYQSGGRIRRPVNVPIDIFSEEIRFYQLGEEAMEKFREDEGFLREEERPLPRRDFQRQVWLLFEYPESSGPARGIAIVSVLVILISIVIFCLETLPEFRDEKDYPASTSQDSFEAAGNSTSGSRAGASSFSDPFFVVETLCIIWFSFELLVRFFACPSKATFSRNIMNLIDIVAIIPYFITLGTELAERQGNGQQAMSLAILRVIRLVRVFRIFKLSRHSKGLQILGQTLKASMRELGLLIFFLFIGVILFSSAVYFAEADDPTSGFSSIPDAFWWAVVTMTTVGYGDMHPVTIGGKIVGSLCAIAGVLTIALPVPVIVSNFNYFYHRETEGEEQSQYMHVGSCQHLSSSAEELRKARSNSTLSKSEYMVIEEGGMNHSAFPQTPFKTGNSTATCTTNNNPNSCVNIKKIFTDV

Chain of UniProt Q09470 (Q09470 whole entry): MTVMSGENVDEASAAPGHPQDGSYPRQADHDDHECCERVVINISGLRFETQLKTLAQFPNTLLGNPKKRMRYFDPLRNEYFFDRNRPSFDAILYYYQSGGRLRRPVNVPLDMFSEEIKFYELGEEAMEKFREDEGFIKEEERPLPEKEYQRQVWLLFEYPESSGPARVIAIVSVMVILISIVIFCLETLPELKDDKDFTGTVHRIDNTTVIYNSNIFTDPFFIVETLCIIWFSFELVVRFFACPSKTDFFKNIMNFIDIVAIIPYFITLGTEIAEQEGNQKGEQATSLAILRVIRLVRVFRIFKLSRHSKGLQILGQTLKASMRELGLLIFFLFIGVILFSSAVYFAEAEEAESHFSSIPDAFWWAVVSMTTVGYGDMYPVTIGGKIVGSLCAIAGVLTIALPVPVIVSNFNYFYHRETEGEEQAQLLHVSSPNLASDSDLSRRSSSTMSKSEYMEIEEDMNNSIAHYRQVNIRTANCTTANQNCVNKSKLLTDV
Chain of UniProt P16389 (P16389 whole entry): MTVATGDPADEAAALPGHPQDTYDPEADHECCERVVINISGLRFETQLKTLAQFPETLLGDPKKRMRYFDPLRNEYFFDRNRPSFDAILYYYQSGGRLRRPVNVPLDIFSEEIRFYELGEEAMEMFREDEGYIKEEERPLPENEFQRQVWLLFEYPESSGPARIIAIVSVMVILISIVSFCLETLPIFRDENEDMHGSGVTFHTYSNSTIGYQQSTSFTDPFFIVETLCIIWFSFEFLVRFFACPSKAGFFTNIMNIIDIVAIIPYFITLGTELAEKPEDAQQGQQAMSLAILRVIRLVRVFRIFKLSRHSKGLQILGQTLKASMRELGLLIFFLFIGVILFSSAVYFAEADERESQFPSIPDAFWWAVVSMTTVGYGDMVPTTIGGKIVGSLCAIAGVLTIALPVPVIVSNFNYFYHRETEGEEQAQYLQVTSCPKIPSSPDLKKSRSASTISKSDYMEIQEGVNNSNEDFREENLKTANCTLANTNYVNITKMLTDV

One may read the Kd as the equilibrium constant for the complex coming apart. As for AgTx-2 (from UniProt P46111), the Kd in data set [1] was 0.13 nM; in data set [2], 3.4 nM; in data set [3], 0.05 nM.
